Experimental data taken from publication PMC4139162.

Molecular target: KcsA potassium channel, L90C, chymotrypsin-truncated (UniProt P0A334)
Experiment: crystal structure

Q: For “KcsA potassium channel, L90C, chymotrypsin-truncated (from UniProt P0A334 1-160) (natural protein)”, which stoichiometry N is on record?
A: The stoichiometry N was 4.
